Reference: paper PMC12866175 (European journal of nuclear medicine and molecular imaging, 2021)

Assay: Radiation dosimetry and clearance kinetics from biodistribution data
Assay type: in vivo, BALB/c mice

**Q.** Which results are given for `C[C@@H](O)[C@H](NC(=O)[C@@H]1CSSC[C@H](NC(=O)[C@@H](Cc2ccccc2)NC(=O)CN2CCN(CC(=O)O)CCN(CC(=O)O)CCN(CC(=O)O)CC2)C(=O)N[C@@H](Cc2ccc(O)cc2)C(=O)N[C@H](Cc2c[nH]c3ccccc23)C(=O)N[C@@H](CCCCN)C(=O)N[C@@H]([C@@H](C)O)C(=O)N1)C(=O)O` [[^225Ac]Ac-DOTA-TATE, metal not drawn]?
**A.** Absorbed dose/injected activity (^213Bi, Blood): 0.0000 Gy/kBq; Accumulated activity/organ, A~ (^213Bi, Blood): 0.2345 kBq×h; Decay rate constant, λeff (^213Bi, Blood): 0.011 h⁻¹; Initial activity/organ, A○ (^213Bi, Blood): 0.0042 kBq; Absorbed dose/injected activity (^213Bi, Bone): 0.0000 Gy/kBq; Accumulated activity/organ, A~ (^213Bi, Bone): 0.9591 kBq×h; Decay rate constant, λeff (^213Bi, Bone): 0.0070 h⁻¹; Initial activity/organ, A○ (^213Bi, Bone): 0.0125 kBq; Absorbed dose/injected activity (^213Bi, Brain): 0.0000 Gy/kBq; Accumulated activity/organ, A~ (^213Bi, Brain): 0.4653 kBq×h; Decay rate constant, λeff (^213Bi, Brain): 0.0080 h⁻¹; Initial activity/organ, A○ (^213Bi, Brain): 0.0066 kBq; Absorbed dose/injected activity (^213Bi, Heart): 0.0000 Gy/kBq; Accumulated activity/organ, A~ (^213Bi, Heart): 0.5789 kBq×h; Decay rate constant, λeff (^213Bi, Heart): 0.0030 h⁻¹; Initial activity/organ, A○ (^213Bi, Heart): 0.0053 kBq; Absorbed dose/injected activity (^213Bi, Intestine): 0.0000 Gy/kBq; Accumulated activity/organ, A~ (^213Bi, Intestine): 3.6681 kBq×h; Decay rate constant, λeff (^213Bi, Intestine): 0.0210 h⁻¹; Initial activity/organ, A○ (^213Bi, Intestine): 0.1340 kBq; Absorbed dose/injected activity (^213Bi, Kidney): 0.0000 Gy/kBq; Accumulated activity/organ, A~ (^213Bi, Kidney): 7.7700 kBq×h; Decay rate constant, λeff (^213Bi, Kidney): 0.0250 h⁻¹; Initial activity/organ, A○ (^213Bi, Kidney): 0.3639 kBq; Absorbed dose/injected activity (^213Bi, Liver): 0.0000 Gy/kBq; Accumulated activity/organ, A~ (^213Bi, Liver): 28.7854 kBq×h; Decay rate constant, λeff (^213Bi, Liver): -0.0073 h⁻¹; Initial activity/organ, A○ (^213Bi, Liver): 0.0948 kBq; Absorbed dose/injected activity (^213Bi, Lung): 0.0000 Gy/kBq; Accumulated activity/organ, A~ (^213Bi, Lung): 0.9636 kBq×h; Decay rate constant, λeff (^213Bi, Lung): 0.0170 h⁻¹; Initial activity/organ, A○ (^213Bi, Lung): 0.0270 kBq; Absorbed dose/injected activity (^213Bi, Muscle): 0.0000 Gy/kBq; Accumulated activity/organ, A~ (^213Bi, Muscle): 0.3058 kBq×h; Decay rate constant, λeff (^213Bi, Muscle): 0.0050 h⁻¹; Initial activity/organ, A○ (^213Bi, Muscle): 0.0034 kBq; Absorbed dose/injected activity (^213Bi, Pancreas): 0.0000 Gy/kBq; Accumulated activity/organ, A~ (^213Bi, Pancreas): 0.5253 kBq×h; Decay rate constant, λeff (^213Bi, Pancreas): 0.0140 h⁻¹; Initial activity/organ, A○ (^213Bi, Pancreas): 0.0119 kBq; Absorbed dose/injected activity (^213Bi, Salivary): 0.000 Gy/kBq; Accumulated activity/organ, A~ (^213Bi, Salivary): 0.6047 kBq×h; Decay rate constant, λeff (^213Bi, Salivary): 0.0030 h⁻¹; Initial activity/organ, A○ (^213Bi, Salivary): 0.0056 kBq; Absorbed dose/injected activity (^213Bi, Skin): 0.000 Gy/kBq; Accumulated activity/organ, A~ (^213Bi, Skin): 0.5575 kBq×h; Decay rate constant, λeff (^213Bi, Skin): 0.0040 h⁻¹; Initial activity/organ, A○ (^213Bi, Skin): 0.0056 kBq; Absorbed dose/injected activity (^213Bi, Spleen): 0.0000 Gy/kBq; Accumulated activity/organ, A~ (^213Bi, Spleen): 1.2470 kBq×h; Decay rate constant, λeff (^213Bi, Spleen): -0.0024 h⁻¹; Initial activity/organ, A○ (^213Bi, Spleen): 0.0068 kBq; Absorbed dose/injected activity (^213Bi, Stomach): 0.0000 Gy/kBq; Accumulated activity/organ, A~ (^213Bi, Stomach): 2.4230 kBq×h; Decay rate constant, λeff (^213Bi, Stomach): 0.0190 h⁻¹; Initial activity/organ, A○ (^213Bi, Stomach): 0.0777 kBq; Absorbed dose/injected activity (^213Po, Blood): 0.0000 Gy/kBq; Accumulated activity/organ, A~ (^213Po, Blood): 0.2345 kBq×h; Decay rate constant, λeff (^213Po, Blood): 0.0110 h⁻¹; Initial activity/organ, A○ (^213Po, Blood): 0.0042 kBq; Absorbed dose/injected activity (^213Po, Bone): 0.0004 Gy/kBq; Accumulated activity/organ, A~ (^213Po, Bone): 0.9591 kBq×h; Decay rate constant, λeff (^213Po, Bone): 0.0070 h⁻¹; Initial activity/organ, A○ (^213Po, Bone): 0.0125 kBq; Absorbed dose/injected activity (^213Po, Brain): 0.0001 Gy/kBq; Accumulated activity/organ, A~ (^213Po, Brain): 0.4653 kBq×h; Decay rate constant, λeff (^213Po, Brain): 0.0080 h⁻¹; Initial activity/organ, A○ (^213Po, Brain): 0.0066 kBq; Absorbed dose/injected activity (^213Po, Heart): 0.0002 Gy/kBq; Accumulated activity/organ, A~ (^213Po, Heart): 0.5789 kBq×h; Decay rate constant, λeff (^213Po, Heart): 0.0030 h⁻¹; Initial activity/organ, A○ (^213Po, Heart): 0.0053 kBq
